Patent US20240270846A1 (published 2024)
Positions count from the first letter of the chain named. Names and notes keep the numbering of the source. One block for each binder: values may come before it.

Molecular target: T1, CD3 epsilon homodimer protein (UniProt P07766 23-126)
T1 construct: also called CD3 (CD3 epsilon)
Experiment: SPR (Biacore T200), CD3e homodimer on CM4 chip, antibody as analyte; KD ratio vs unaltered GLS3000;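 further: CD3 epsilon homodimer amine-coupled to the sensor surface, antibodies injected as analyte at 25 °C with HBS-EP+ running buffer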

T1 sequence (P07766 23-126): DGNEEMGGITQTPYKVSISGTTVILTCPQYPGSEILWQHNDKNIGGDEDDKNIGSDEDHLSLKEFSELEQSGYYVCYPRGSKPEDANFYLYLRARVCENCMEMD

- KD ratio to GLS3000: 11.7 ratio
B1: CE115HA000/GLS3000 P95L one-arm antibody (antibody, human IgG1, kappa, L234A L235A, N297A, name in Kabat numbering)
heavy: QVQLVESGGGVVQPGRSLRLSCAASGFTFSNAWMHWVRQAPGKGLEWVAQIKAKSNNYATYYAESVKGRFTISRDDSKNSLYLQMNSLKTEDTAVYYCRYVHYGAYYGVDAWGQGTTVTVSSASTKGPSVFPLAPSSKSTSGGTAALGCLVKDYFPEPVTVSWNSGALTSGVHTFPAVLQSSGLYSLSSVVTVPSSSLGTQTYICNVNHKPSNTKVDKKVEPKSCDKTHTCPPCPAPEAAGGPSVFLFPPKPKDTLMISRTPEVTCVVVDVSHEDPEVKFNWYVDGVEVHNAKTKPREEQYASTYRVVSVLTVLHQDWLNGKEYKCKVSNKALPAPIEKTISKAKGQPREPQVYTLPPSRCELTKNQVSLSCAVKGFYPSDIAVEWESNGQPENNYKTTPPVLDSDGSFFLVSKLTVDKSRWQQGNVFSCSVMHEALHNHYTQKSLSLSPDYKDDDDK
chain: EPKSSDKTHTCPPCPAPELLGGPSVFLFPPKPKDTLMISRTPEVTCVVVDVSHEDPEVKFNWYVDGVEVHNAKTKPREEQYNSTYRVVSVLTVLHQDWLNGKEYKCKVSNKALPAPIEKTISKAKGQPREPQVCTLPPSRDELTKNQVSLWCLVKGFYPSDIAVEWESNGQPENNYKTTPPVLDSDGSFFLYSKLTVDKSRWQQGNVFSCSVMHEALHNRYTQKSLSLSP
light: DIVMTQSPLSLPVTPGEPASISCRSSQSLVHSNRNTYLHWYQQKPGQAPRLLIYKVSNRFSGVPDRFSGSGSGTDFTLKISRVEAEDVGVYYCGQGTQVLYTFGQGTKLEIKRTVAAPSVFIFPPSDEQLKSGTASVVCLLNNFYPREAKVQWKVDNALQSGNSQESVTEQDSKDSTYSLSSTLTLSKADYEKHKVYACEVTHQGLSSPVTKSFNRGEC
notes: one-arm IgG1

- KD ratio to GLS3000: 1.11 ratio
B2: CE115HA000/GLS3000 S56D one-arm antibody (antibody, human IgG1, kappa, L234A L235A, N297A, name in Kabat numbering)
heavy: B1 heavy
chain: B1 chain
light: B1 light with S61D, L100P
notes: one-arm IgG1

- KD ratio to GLS3000: 0.65 ratio
B3: CE115HA000/GLS3000 R54W one-arm antibody (antibody, human IgG1, kappa, L234A L235A, N297A, name in Kabat numbering)
heavy: B1 heavy
chain: B1 chain
light: B1 light with R59W, L100P
notes: one-arm IgG1

- KD ratio to GLS3000: 0.89 ratio
B4: CE115HA000/GLS3000 R54T one-arm antibody (antibody, human IgG1, kappa, L234A L235A, N297A, name in Kabat numbering)
heavy: B1 heavy
chain: B1 chain
light: B1 light with R59T, L100P
notes: one-arm IgG1

- KD ratio to GLS3000: 11.1 ratio
B5: CE115HA000/GLS3000 Q90D one-arm antibody (antibody, human IgG1, kappa, L234A L235A, N297A, name in Kabat numbering)
heavy: B1 heavy
chain: B1 chain
light: B1 light with Q95D, L100P
notes: one-arm IgG1

- KD ratio to GLS3000: 1.02 ratio
B6: CE115HA000/GLS3000 S52Y one-arm antibody (antibody, human IgG1, kappa, L234A L235A, N297A, name in Kabat numbering)
heavy: B1 heavy
chain: B1 chain
light: B1 light with S57Y, L100P
notes: one-arm IgG1

- KD ratio to GLS3000: 0.94 ratio
B7: CE115HA000/GLS3000 S52D one-arm antibody (antibody, human IgG1, kappa, L234A L235A, N297A, name in Kabat numbering)
heavy: B1 heavy
chain: B1 chain
light: B1 light with S57D, L100P
notes: one-arm IgG1

- KD ratio to GLS3000: 0.89 ratio
B8: CE115HA000/GLS3000 Q90A one-arm antibody (antibody, human IgG1, kappa, L234A L235A, N297A, name in Kabat numbering)
heavy: B1 heavy
chain: B1 chain
light: B1 light with Q95A, L100P
notes: one-arm IgG1

- KD ratio to GLS3000: 0.84 ratio
B9: CE115HA000/GLS3000 R54E one-arm antibody (antibody, human IgG1, kappa, L234A L235A, N297A, name in Kabat numbering)
heavy: B1 heavy
chain: B1 chain
light: B1 light with R59E, L100P
notes: one-arm IgG1

- KD ratio to GLS3000: 0.91 ratio
B10: CE115HA000/GLS3000 Q90E one-arm antibody (antibody, human IgG1, kappa, L234A L235A, N297A, name in Kabat numbering)
heavy: B1 heavy
chain: B1 chain
light: B1 light with Q95E, L100P
notes: one-arm IgG1

- KD ratio to GLS3000: 0.91 ratio
B11: CE115HA000/GLS3000 S56E one-arm antibody (antibody, human IgG1, kappa, L234A L235A, N297A, name in Kabat numbering)
heavy: B1 heavy
chain: B1 chain
light: B1 light with S61E, L100P
notes: one-arm IgG1

- KD ratio to GLS3000: 0.88 ratio
B12: CE115HA000/GLS3000 R54G one-arm antibody (antibody, human IgG1, kappa, L234A L235A, N297A, name in Kabat numbering)
heavy: B1 heavy
chain: B1 chain
light: B1 light with R59G, L100P
notes: one-arm IgG1

- KD ratio to GLS3000: 0.96 ratio
B13: CE115HA000/GLS3000 S56H one-arm antibody (antibody, human IgG1, kappa, L234A L235A, N297A, name in Kabat numbering)
heavy: B1 heavy
chain: B1 chain
light: B1 light with S61H, L100P
notes: one-arm IgG1

- KD ratio to GLS3000: 0.78 ratio
B14: CE115HA000/GLS3000 R54S one-arm antibody (antibody, human IgG1, kappa, L234A L235A, N297A, name in Kabat numbering)
heavy: B1 heavy
chain: B1 chain
light: B1 light with R59S, L100P
notes: one-arm IgG1

- KD ratio to GLS3000: 1.01 ratio
B15: CE115HA000/GLS3000 S52Q one-arm antibody (antibody, human IgG1, kappa, L234A L235A, N297A, name in Kabat numbering)
heavy: B1 heavy
chain: B1 chain
light: B1 light with S57Q, L100P
notes: one-arm IgG1

- KD ratio to GLS3000: 0.99 ratio
B16: CE115HA000/GLS3000 S56G one-arm antibody (antibody, human IgG1, kappa, L234A L235A, N297A, name in Kabat numbering)
heavy: B1 heavy
chain: B1 chain
light: B1 light with S61G, L100P
notes: one-arm IgG1

- KD ratio to GLS3000: 1.04 ratio
B17: CE115HA000/GLS3000 R54Q one-arm antibody (antibody, human IgG1, kappa, L234A L235A, N297A, name in Kabat numbering)
heavy: B1 heavy
chain: B1 chain
light: B1 light with R59Q, L100P
notes: one-arm IgG1

- KD ratio to GLS3000: 7.38 ratio
B18: CE115HA000/GLS3000 S52P one-arm antibody (antibody, human IgG1, kappa, L234A L235A, N297A, name in Kabat numbering)
heavy: B1 heavy
chain: B1 chain
light: B1 light with S57P, L100P
notes: one-arm IgG1

- KD ratio to GLS3000: 0.65 ratio
B19: CE115HA000/GLS3000 Q93A one-arm antibody (antibody, human IgG1, kappa, L234A L235A, N297A, name in Kabat numbering)
heavy: B1 heavy
chain: B1 chain
light: B1 light with Q98A, L100P
notes: one-arm IgG1

- KD ratio to GLS3000: 1.8 ratio
B20: CE115HA000/GLS3000 R54D one-arm antibody (antibody, human IgG1, kappa, L234A L235A, N297A, name in Kabat numbering)
heavy: B1 heavy
chain: B1 chain
light: B1 light with R59D, L100P
notes: one-arm IgG1

- KD ratio to GLS3000: 1.05 ratio
B21: CE115HA000/GLS3000 R54P one-arm antibody (antibody, human IgG1, kappa, L234A L235A, N297A, name in Kabat numbering)
heavy: B1 heavy
chain: B1 chain
light: B1 light with R59P, L100P
notes: one-arm IgG1

- KD ratio to GLS3000: 1.05 ratio
B22: CE115HA000/GLS3000 Q93E one-arm antibody (antibody, human IgG1, kappa, L234A L235A, N297A, name in Kabat numbering)
heavy: B1 heavy
chain: B1 chain
light: B1 light with Q98E, L100P
notes: one-arm IgG1

- KD ratio to GLS3000: 1.12 ratio
B23: CE115HA000/GLS3000 S56F one-arm antibody (antibody, human IgG1, kappa, L234A L235A, N297A, name in Kabat numbering)
heavy: B1 heavy
chain: B1 chain
light: B1 light with S61F, L100P
notes: one-arm IgG1

- KD ratio to GLS3000: 0.72 ratio
B24: CE115HA000/GLS3000 Q93D one-arm antibody (antibody, human IgG1, kappa, L234A L235A, N297A, name in Kabat numbering)
heavy: B1 heavy
chain: B1 chain
light: B1 light with Q98D, L100P
notes: one-arm IgG1
